Laboratory results reported in publication PMC10889000.

Target: Insulin-like growth factor 2 mRNA binding protein 2, full-length, Q9Y6M1
Experiment: mass photometry
Details: remark: other sources report otherwise

B1: Insulin-like growth factor 2 mRNA binding protein 2, full-length, Q9Y6M1 1-599 (natural protein)
chain: MMNKLYIGNLSPAVTADDLRQLFGDRKLPLAGQVLLKSGYAFVDYPDQNWAIRAIETLSGKVELHGKIMEVDYSVSKKLRSRKIQIRNIPPHLQWEVLDGLLAQYGTVENVEQVNTDTETAVVNVTYATREEAKIAMEKLSGHQFENYSFKISYIPDEEVSSPSPPQRAQRGDHSSREQGHAPGGTSQARQIDFPLRILVPTQFVGAIIGKEGLTIKNITKQTQSRVDIHRKENSGAAEKPVTIHATPEGTSEACRMILEIMQKEADETKLAEEIPLKILAHNGLVGRLIGKEGRNLKKIEHETGTKITISSLQDLSIYNPERTITVKGTVEACASAEIEIMKKLREAFENDMLAVNQQANLIPGLNLSALGIFSTGLSVLSPPAGPRGAPPAAPYHPFTTHSGYFSSLYPHHQFGPFPHHHSYPEQEIVNLFIPTQAVGAIIGKKGAHIKQLARFAGASIKIAPAEGPDVSERMVIITGPPEAQFKAQGRIFGKLKEENFFNPKEEVKLEAHIRVPSSTAGRVIGKGGKTVNELQNLTSAEVIVPRDQTPDENEEVIVRIIGHFFASQTAQRKIREIVQQVKQQEQKYPQGVASQRSK
Binder B1 has a percent of the protein in the ˜160kDa species of 42%.
